Experimental findings from US20200270125A1 (OMEROS, published 2020) are described below.

The target of experiment [1] is T1, human MASP-3 (construct not stated) (human).
T1 chain: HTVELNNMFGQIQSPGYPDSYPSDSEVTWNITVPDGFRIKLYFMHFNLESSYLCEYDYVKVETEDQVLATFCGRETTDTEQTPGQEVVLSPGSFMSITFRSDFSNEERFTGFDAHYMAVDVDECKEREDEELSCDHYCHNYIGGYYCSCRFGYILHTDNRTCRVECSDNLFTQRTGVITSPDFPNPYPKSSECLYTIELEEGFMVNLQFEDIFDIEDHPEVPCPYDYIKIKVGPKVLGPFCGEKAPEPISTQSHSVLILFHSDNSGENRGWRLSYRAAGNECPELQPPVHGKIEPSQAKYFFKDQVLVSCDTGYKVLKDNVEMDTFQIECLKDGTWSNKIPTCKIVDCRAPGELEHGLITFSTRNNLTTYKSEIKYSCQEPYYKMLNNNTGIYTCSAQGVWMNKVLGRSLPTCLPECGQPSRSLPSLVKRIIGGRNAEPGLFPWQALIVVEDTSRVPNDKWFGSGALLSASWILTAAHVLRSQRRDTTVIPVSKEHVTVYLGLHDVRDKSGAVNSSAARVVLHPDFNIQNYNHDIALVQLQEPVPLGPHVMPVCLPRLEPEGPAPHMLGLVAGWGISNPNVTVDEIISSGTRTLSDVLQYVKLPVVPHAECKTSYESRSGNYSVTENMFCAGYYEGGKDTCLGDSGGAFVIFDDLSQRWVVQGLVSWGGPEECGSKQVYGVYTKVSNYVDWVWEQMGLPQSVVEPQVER
Put plainly: cell-based or functional assay.

Experiment [2] has as its target T2, human MASP-3 CCP1-CCP2-SP fragment (human).
T2 chain: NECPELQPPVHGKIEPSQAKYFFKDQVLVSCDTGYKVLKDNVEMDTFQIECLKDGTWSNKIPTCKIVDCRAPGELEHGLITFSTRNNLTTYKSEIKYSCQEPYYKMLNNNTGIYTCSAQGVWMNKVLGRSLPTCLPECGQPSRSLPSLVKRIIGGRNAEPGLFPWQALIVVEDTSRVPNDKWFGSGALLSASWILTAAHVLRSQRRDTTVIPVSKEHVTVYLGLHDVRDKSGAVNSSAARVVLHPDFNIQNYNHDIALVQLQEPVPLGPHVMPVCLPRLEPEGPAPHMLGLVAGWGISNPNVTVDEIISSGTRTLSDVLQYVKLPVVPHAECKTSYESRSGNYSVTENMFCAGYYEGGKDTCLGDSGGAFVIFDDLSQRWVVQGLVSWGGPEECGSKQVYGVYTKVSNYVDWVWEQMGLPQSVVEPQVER
Put plainly: cell-based or functional assay.

For experiment [3], the target named is T1, human MASP-3 (construct not stated). As to the kind of experiment: cell-based or functional assay.
Experiment [4] has as its target T3, recombinant human MASP-2 (CCP1-CCP2-SP fragment) (human, UniProt O00187 298-686, limits assumed).
T3 construct: domain: CCP1-CCP2-SP fragment
As to the kind of experiment: ELISA: recombinant MASP-2 (CCP1-CCP2-SP) coated directly on the plate, A450. Put shortly:
(§1)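 Candidate MASP-3 antibodies incubated 1 h at room temperature on the prepared plate, then detected with mouse anti-human kappa-HRP for 1 h. Developed 5 min with TMB; absorbance read at 450 nm.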
(In general: An ELISA detects its analyte on a solid surface through an enzyme-linked reagent.)

Experiment [5] addresses T4, recombinant human MASP-1A (S646A, CCP1-CCP2-SP fragment) (human, UniProt P48740 298-699, limits assumed).
T4 chain: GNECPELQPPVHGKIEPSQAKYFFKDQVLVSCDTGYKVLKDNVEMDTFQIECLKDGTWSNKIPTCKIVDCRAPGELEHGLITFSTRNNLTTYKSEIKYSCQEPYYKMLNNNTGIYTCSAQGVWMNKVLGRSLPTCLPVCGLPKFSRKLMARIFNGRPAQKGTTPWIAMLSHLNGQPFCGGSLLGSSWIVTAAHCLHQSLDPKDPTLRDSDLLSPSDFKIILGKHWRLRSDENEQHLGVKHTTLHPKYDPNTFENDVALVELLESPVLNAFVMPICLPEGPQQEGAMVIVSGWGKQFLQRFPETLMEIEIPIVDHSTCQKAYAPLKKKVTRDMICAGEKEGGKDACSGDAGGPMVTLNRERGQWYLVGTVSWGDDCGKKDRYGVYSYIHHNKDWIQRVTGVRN
Put plainly: ELISA: recombinant MASP-1A (S646A, CCP1-CCP2-SP) coated directly on the plate, A450. Put shortly:
as §1

The target in experiment [6] is T2, human MASP-3 CCP1-CCP2-SP fragment. Put plainly: sandwich ELISA: human MASP-3 CCP1-CCP2-SP captured on aM3-259, mAb detected with anti-human kappa-HRP, A450. On the procedure: The plate was then washed (PBS-T, 0.05%) and the candidate MASP-3 antibodies were added followed by incubation for one hour at room temperature. The plate was washed (PBS-T, 0.05%) and a detection antibody was added (mouse anti-human kappa-HRP, SouthernBiotech #9230-05) for one hour at room temperature. After another wash (PBS-T, 0.05%) the plate was developed (5 minutes) with OPT EIA TMB (BD Biosciences #555214). Absorbance reading at A450 was measured using the Spectramax M5e plate reader.

For experiment [7] the target is unchanged. As to the kind of experiment: sandwich ELISA, MASP-3 CCP1-CCP2-SP captured by αM3-259. Put shortly:
as §1

Experiment [8] concerns the target T5, recombinant full-length mouse MASP-3 (mouse).
T5 construct: Entry is with leader; also called mouse full length MASP-3
T5 chain: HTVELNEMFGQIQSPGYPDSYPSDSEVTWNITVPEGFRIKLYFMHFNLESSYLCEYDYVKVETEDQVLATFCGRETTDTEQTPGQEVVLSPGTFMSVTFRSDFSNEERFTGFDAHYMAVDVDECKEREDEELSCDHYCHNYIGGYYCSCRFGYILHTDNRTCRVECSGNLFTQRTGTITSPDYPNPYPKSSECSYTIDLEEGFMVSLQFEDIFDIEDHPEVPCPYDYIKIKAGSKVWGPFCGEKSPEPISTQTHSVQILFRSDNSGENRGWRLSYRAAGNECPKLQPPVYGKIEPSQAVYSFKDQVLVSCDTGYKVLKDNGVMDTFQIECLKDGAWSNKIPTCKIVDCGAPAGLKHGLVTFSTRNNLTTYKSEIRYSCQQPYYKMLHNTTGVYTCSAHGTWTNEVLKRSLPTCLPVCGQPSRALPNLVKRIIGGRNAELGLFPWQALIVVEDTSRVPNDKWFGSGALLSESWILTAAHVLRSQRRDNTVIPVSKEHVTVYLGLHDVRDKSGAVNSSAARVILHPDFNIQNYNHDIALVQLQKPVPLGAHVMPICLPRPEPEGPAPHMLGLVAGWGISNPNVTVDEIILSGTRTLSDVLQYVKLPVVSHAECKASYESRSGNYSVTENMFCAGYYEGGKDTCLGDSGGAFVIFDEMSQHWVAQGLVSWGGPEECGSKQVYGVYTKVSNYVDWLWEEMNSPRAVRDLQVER
As to the kind of experiment: sandwich ELISA, full-length mouse MASP-3 captured by αM3-259. In outline:
as §1

The target in experiment [9] is T1, human MASP-3 (construct not stated). As to the kind of experiment: not described at this place.
The target is the same in experiment [10]. As to the kind of experiment: cross-species binding experiments.
In experiment [11] the target is T5, recombinant full-length mouse MASP-3. As to the kind of experiment: ELISA, full-length mouse MASP-3 held by a capture antibody, monovalent Fab, anti-kappa-HRP. From the text:
(§2) Binding affinity determinations were made by coating 96-well plates with an anti-MASP-3 capture antibody that binds the protein from multiple species.

Experiment [12] concerns the target T1, human MASP-3 (construct not stated). As to the kind of experiment: ELISA, monovalent Fab.
Experiment [13] addresses T6, recombinant full-length human MASP-3 (human).
T6 construct: Recombinant, full-length; also called full-length human MASP-3 protein; rMASP-3 (full-length)
T6 chain: T1 chain
As to the kind of experiment: ELISA, full-length human MASP-3 held by a capture antibody, monovalent Fab, anti-kappa-HRP.
From the text: as §2

In experiment [14] the target is T7, human MASP-1 (construct not stated) (human, UniProt P48740 20-699, limits assumed).
T7 sequence: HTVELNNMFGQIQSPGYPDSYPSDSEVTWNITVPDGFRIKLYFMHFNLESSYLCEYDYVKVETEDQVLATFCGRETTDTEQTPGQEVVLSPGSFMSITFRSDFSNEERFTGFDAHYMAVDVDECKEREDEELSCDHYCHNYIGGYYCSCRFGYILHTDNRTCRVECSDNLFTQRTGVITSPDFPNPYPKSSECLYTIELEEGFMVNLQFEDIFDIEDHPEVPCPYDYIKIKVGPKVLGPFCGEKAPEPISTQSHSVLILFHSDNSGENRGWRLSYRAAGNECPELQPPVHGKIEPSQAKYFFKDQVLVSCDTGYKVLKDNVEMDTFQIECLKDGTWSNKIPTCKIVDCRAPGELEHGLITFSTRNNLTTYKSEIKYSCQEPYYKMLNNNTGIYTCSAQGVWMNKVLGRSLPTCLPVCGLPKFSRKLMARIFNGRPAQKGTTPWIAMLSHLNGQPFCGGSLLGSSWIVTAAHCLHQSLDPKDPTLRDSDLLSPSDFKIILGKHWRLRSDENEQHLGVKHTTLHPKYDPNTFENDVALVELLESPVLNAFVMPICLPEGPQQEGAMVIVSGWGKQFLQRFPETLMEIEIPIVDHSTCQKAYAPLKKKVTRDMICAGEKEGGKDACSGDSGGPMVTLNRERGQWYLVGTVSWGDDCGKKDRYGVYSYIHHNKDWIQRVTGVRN
Put plainly: DTLacO screen.

Some results are limits rather than exact numbers.

Broadly, the EC50 is the concentration at which the effect is half-maximal.

T3 sequence (O00187 298-686 limits assumed): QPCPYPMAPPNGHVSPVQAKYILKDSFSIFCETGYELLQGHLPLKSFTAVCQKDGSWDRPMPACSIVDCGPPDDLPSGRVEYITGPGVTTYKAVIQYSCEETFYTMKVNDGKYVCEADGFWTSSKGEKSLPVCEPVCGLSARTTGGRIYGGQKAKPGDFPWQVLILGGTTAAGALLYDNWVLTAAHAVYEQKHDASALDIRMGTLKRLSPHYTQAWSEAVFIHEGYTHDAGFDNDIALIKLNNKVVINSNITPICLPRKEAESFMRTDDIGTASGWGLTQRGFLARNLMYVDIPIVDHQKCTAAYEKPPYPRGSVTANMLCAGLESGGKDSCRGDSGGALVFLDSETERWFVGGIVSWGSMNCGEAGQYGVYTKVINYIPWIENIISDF

B1: MASP-3 mAb 13B1 (mouse-human chimeric IgG4) (antibody, V domains shown)
VH: QVQLKQSGAELMKPGASVKLSCKATGYTFTGKWIEWVKQRPGHGLEWIGEILPGTGSTNYNEKFKGKATFTADSSSNTAYMQLSSLTTEDSAMYYCLRSEDVWGTGTTVTVSS
VL: DIVMTQSPSSLAVSAGEKVTMSCKSSQSLLNSRTRKNYLAWYQQKPGQSPKLLIYWASTRESGVPDRFTGSGSGTDFTLTISSVQAEDLAVYYCKQSYNIPTFGGGTKLEIKR
notes: also called mAb M3-1; M3-1
For B1, in experiment [1], the “Inhibition of Factor Bb Deposition on Zymosan (IC50 nM), 10% factor D-depleted human serum with pro-factor D” value came out at 0.3 nM. Besides, in experiment [2], the “inhibition of MASP-3-dependent fluorogenic tripeptide (BOC-V-P-R-AMC) cleavage” value turned out to be 30.1 nM. The “IC50, factor Bb deposition on zymosan in 10% CFD-depleted human serum with pro-CFD (flow cytometry)” value in [3] turned out to be 0.311 nM. Besides, the binding result in experiment [4] and in experiment [5] was “no binding (tested: about 20 nM (log10 about 1.3))” each time. The EC50 in [6] turned out to be 0.089 nM; in experiment [7], 0.059 nM; in experiment [8], 0.035 nM. Moreover, the binding affinity in experiment [9] is at most 500 pM.

B2: 13B1 Parental Fab (Fab, V domains shown)
VH: B1 VH
VL: B1 VL
notes: Monovalent Fab; also called M3-1 Fab; 13B1 Fab
With B2, the avidity in [10] was below 500 pM. Further, the EC50 in experiment [11] was around 0.214 nM; in experiment [12], 0.123 nM; in experiment [13] it was around 0.117 nM.

B3: MASP-1 clone 1E10 (antibody, human IgG1, V domains shown)
VH: AVTLDESGGGLQTPGGALSLVCKASGFTFSSYDMVWVRQAPGKGLEFVAGISRNDGRYTEYGSAVKGRATISRDNGQSTVRLQLNNLRAEDTATYYCARDAGGSAYWFDAGQIDAWGHGTEVIVSS
VL: ALTQPASVSANPGETVKITCSGGGSYAGSYYYGWYQQKAPGSAPVTLIYYNNKRPSDIPSRFSGSLSGSTNTLTITGVRADDEAVYFCGSADNSGAAFGAGTTLTVL
notes: Chicken V regions from the DTLacO platform; also called mAb 1E10; mAb1E10
With B3, the binding result in experiment [14] was “binds”.
